Measured values reported in patent US20130123171A1 (INDIANA UNIVERSITY RESEARCH AND TECHNOLOGY CORPORA, published 2013).
Values joined by “and” are separate entries in the source; they are usually repeats but may differ in a detail not shown here. Equal values may be shown once. Positions of bridges follow the written chain, without caps; N, C: chain ends. Chains are numbered I, II in the order given. No end group written: not given here.

Experiments:
[1] = biological target: insulin receptor, A subtype (UniProt P06213); assay: cell-based or functional assay
[2] = biological target: insulin receptor, B subtype (UniProt P06213); assay: cell-based or functional assay
[3] = biological target: T1, human insulin receptor (human, UniProt P06213 28-1382); assay: SPA competition vs 125I-insulin, human IR membranes (Example 3)
T1 construct: whole, on cells
Experimental: (§1) Non-specifically bound (NSB) radioactivity was measured in the wells with a four-fold concentration excess of “cold” native ligand than the highest concentration in test samples. Total bound radioactivity was detected in the wells with no competitor. Percent specific binding was calculated as following: % Specific Binding=(Bound-NSB/Total bound-NSB)×100.

[4] = biological target: human insulin receptor (human) (UniProt P06213); assay: as above
[5] = biological target: human insulin receptor (human) (UniProt P06213); assay: cell-based or functional assay
[6] = biological target: T1, human insulin receptor; assay: cell-based or functional assay
[7] = biological target: T1, human insulin receptor; assay: in vitro insulin receptor binding assay after 0 hr in 20% plasma/PBS at 37 C, relative to native insulin
[8] = biological target: T1, human insulin receptor; assay: in vitro insulin receptor binding assay after 9 hr in 20% plasma/PBS at 37 C, relative to native insulin
[9] = biological target: T1, human insulin receptor; assay: in vitro insulin receptor binding assay after 95 hr in 20% plasma/PBS at 37 C, relative to native insulin
[10] = biological target: T2, human IGF-1 receptor (human, UniProt P08069 31-1367); assay: cell-based or functional assay
T2 construct: whole, on cells

[11] = biological target: T2, human IGF-1 receptor; assay: SPA competition vs 125I-IGF-1, human IGF-1R membranes (Example 3)
Experimental: as §1

| Molecule | IC50 [3] | % IGF-1 (in test) [11] | % native IGF-1 activity (0.55 nM) [11] | IC50 [11] | further results |
| --- | --- | --- | --- | --- | --- |
| B^1Aoa2(H5, H10,Y16,L17)25a: A^1(pNH2-F19, N18, N21) (peptide) |  |  |  |  | % (of insulin), in vitro phosphorylation assay, IR-A [1]: 81%; % (of insulin), in vitro phosphorylation assay, IR-B [2]: 48% |
| In A:IGF-1 B(YL) (peptide) | 82.6 nM and 107 nM |  |  |  | % insulin (in test) [3]: 0.9% and 0.7%; % native insulin activity (0.6 nM) [3]: 0.7% and 0.6% |
| IGF-1 A:B (H5D10Y16L17) (S═O)DPI (peptide) |  |  |  |  | % insulin (in test) [4]: 316%; IC50 [4]: 0.25 nM |
| IGF1(Y^B16L^B17)(AlaPro)^A-1,0 (peptide) | 1.93 nM |  |  |  | % of Insulin Activity [3]: 37.1% |
| IGF-1 A (H8 A9 N21):B (H5D10Y16L17 A22) DPI A-COOH (peptide) |  |  |  |  | % Insulin, total phosphorylation, Insulin Receptor [5]: 360% and 614% |
| MIU-30a: B^1(Y16,L17,Y25)29a: A^1(dLys(Ac),Sar-aF19) (peptide) |  |  |  |  | % Activity of Insulin, in vitro phosphorylation assay, after 1 hr in 20% plasma [6]: 23%; % Activity of Insulin, in vitro phosphorylation assay, after 3 hr in 20% plasma [6]: 26.8%; % Activity of Insulin, in vitro phosphorylation assay, after 6 hr in 20% plasma [6]: 32.5%; % Activity of Insulin, in vitro phosphorylation assay, after 9 hr in 20% plasma [6]: 41.1%; % Activity of Insulin, in vitro phosphorylation assay, after 10.5 hr in 20% plasma [6]: 43.2%; % Activity of Insulin [7]: 34.4%; % Activity of Insulin [8]: 100%; % Activity of Insulin [9]: 115% |
| IGF-1 A (H8 A9 N21):B (H5D10Y16L17) DPI A-COOH (peptide) | 0.05 nM and 0.09 nM | 12.9% | 13.6% | 4.03 nM | % Insulin, total phosphorylation, Insulin Receptor [6]: 840% and 1080%; % IGF, total phosphorylation, IGF-1 Receptor [10]: 181%; % insulin (in test) [3]: 1580% and 1670% |
| IGF-1 A:B (H5D10Y16L17) DPI (peptide) |  |  |  |  | % insulin (in test) [4]: 479%; IC50 [4]: 0.16 nM |
| IGF-1 A:B(D10Y16L17) DPI A-COOH (peptide) | 0.26 nM and 0.2 nM and 0.42 nM | 7.7% | 8.1% | 6.79 nM | % Insulin, total phosphorylation, Insulin Receptor [6]: 1580%; % IGF, total phosphorylation, IGF-1 Receptor [10]: 112%; % insulin (in test) [3]: 301% and 380% and 174%; % native insulin activity (0.6 nM) [3]: 231% and 300% and 144% |
| IGF1 A:B(Y^B16L^B17)(p-NH2-F)^A19amide (peptide) | 1.08 nM |  |  |  | % of Insulin Activity [3]: 22% |
| B^1PEGAoa2(H5, H10,Y16,L17)25a: A^1(dLys(rE-C14),Nleu-aF19, N18, N21) (peptide) |  |  |  |  | % (of insulin), in vitro phosphorylation assay, IR-A, prodrug after 78 h in PBS at 37 C [1]: 8.3%; % (of insulin), in vitro phosphorylation assay, IR-A, prodrug at 0 h [1]: 1.1%; % (of insulin), in vitro phosphorylation assay, IR-B, prodrug after 78 h in PBS at 37 C [2]: 6.3%; % (of insulin), in vitro phosphorylation assay, IR-B, prodrug at 0 h [2]: 1.2% |
| IGF-1 A:B(E10 Y16L17)-E31E32B-COOH (peptide) |  | 3% | 3.1% | 17.5 nM | % Insulin, total phosphorylation, Insulin Receptor [6]: 18.1% and 31.7% |
| B^1PEG-Aoa2(H5, H10,Y16,L17)25a: A^1(pNH2-F19, N18, N21), N-terminal 20 kDa PEG, no dipeptide at A19 |  |  |  |  | % (of insulin), in vitro phosphorylation assay, IR-A [1]: 18%; % (of insulin), in vitro phosphorylation assay, IR-B [2]: 6.5% |
| IGF1 (Y^B16L^B17) (disulfide I:7-II:6 (inferred); not fully specified (C-terminus, bridges); cysteine pairing not given here, A chain, then B chain, two chain heteroduplex; also called IGF1(YL)^B16B17 analog; IGF1 A:B(Y^B16L^B17)) A chain: GIVDECCFRSCDLRRLEMYCA B chain: GPETLCGAELVDALYLVCGDRGFYFNKPT | 0.51 nM |  |  |  |  |
| IGF-1 A:B (disulfide I:7-II:6 (inferred); not fully specified (bridges); ends not checked; also: C-terminal amide (chain not given here), Two chain heteroduplex of the native IGF-1 A and B chains) chain 1: GIVDECCFRSCDLRRLEMYCA-NH2 chain 2: GPETLCGAELVDALQFVCGDRGFYFNKPT-NH2 | 10.4 nM |  |  |  | % insulin (in test) [3]: 5.8%; % native insulin activity (0.6 nM) [3]: 5.8% |
| IGF-1 A:B (E10Y16L17) DPI (disulfide I:7-II:6 (inferred); not fully specified (bridges); cysteine pairing not given here, A chain, then B chain; DPI as in m25) A chain: GIVDECCFRSCDLRRLEMYCA-NH2 B chain: GPETLCGAELVDALYLVCGDRGFY-NH2 |  | 3.3% | 2.4% | 22.9 nM |  |
| IGF-1 A (H8 A9 N21):B (H5D10Y16L17 A22) DPI A-COOH (ends and bridges not checked) chain 1: GIVDECCHASCDLRRLEMYCN-OH chain 2: GPEHLCGADLVDALYLVCGDAGFY-NH2 |  | 2.3% | 2.4% | 22.8 nM |  |
| IGF-1 A:B (H5D10Y16L17) DPI (disulfide I:7-II:6 (inferred); not fully specified (bridges); ends not checked; also: C-terminal amide (chain not given here)) chain 1: GIVDECCFRSCDLRRLEMYCA-NH2 chain 2: GPEHLCGADLVDALYLVCGDRGFY-NH2 |  | 11.2% | 11.8% | 4.66 nM |  |
| IGF-1 A:In (1-17)-IGF-1 B (18-30) (disulfide I:7-II:7 (inferred); not fully specified (bridges); ends not checked; also: C-terminal amide (chain not given here), my derivation) chain 1: GIVDECCFRSCDLRRLEMYCA-NH2 chain 2: FVNQHLCGSHLVEALYLVCGDRGFYFNKPT-NH2 | 2.77 nM and 2.67 nM and 2.48 nM | 0.9% | 0.9% | 62.5 nM |  |
| IGF-1 A:In B(1-5)-IGF-1 B(YL) (6-30) (disulfide I:6-I:11, I:20-II:19, I:7-II:7; also: disulfides as in insulin, my derivation) A chain: GIVDECCFRSCDLRRLEMYCA-NH2 B chain: FVNQHLCGAELVDALYLVCGDRGFYFNKPT-NH2 |  | 3.6% | 2% | 27.5 nM |  |
| IGF-1 A:B(E10Y16L17) (disulfide I:7-II:6 (inferred); not fully specified (bridges); cysteine pairing not given here, A chain, then B chain) A chain: GIVDECCFRSCDLRRLEMYCA-NH2 B chain: GPETLCGAELVDALYLVCGDRGFYFNKPT-NH2 | 0.66 nM and 0.51 nM |  |  | 7.85 nM and 12.2 nM |  |
| IGF-1 A:IGF-1 B(1-8)-In (9-17)-IGF-1 B (18-30) (disulfide I:7-II:6 (inferred); not fully specified (bridges); ends not checked; also: C-terminal amide (chain not given here), my derivation) chain 1: GIVDECCFRSCDLRRLEMYCA-NH2 chain 2: GPETLCGSHLVEALYLVCGDRGFYFNKPT-NH2 | 1.59 nM | 0.3% | 0.4% | 131 nM | % insulin (in test) [3]: 19.1%; % native insulin activity (0.6 nM) [3]: 37.7% |
